Nine molecules from patent US20080008707A1, “Denatured collagen peptides and uses thereof” (Cell-Matrix, Inc., priority 2006, published 2008) can be followed below.

Marks after values point to notes of the source that are not given here. Square brackets hold non-standard residues; d marks the D form. Ends that are not written are not given here. Hyp = O=C(O)[C@@H]1C[C@@H](O)CN1

Assay [1] deals with D93, recombinant humanized IgG1 kappa antibody targeting denatured-collagen. Briefly: competition ELISA on coated human dn-collagen IV. Background: In an ELISA, binding on a coated surface is turned into a signal by an enzyme label.
Chain of D93, recombinant humanized IgG1 kappa antibody targeting denatured-collagen (heavy, as listed by the source, chain 1 of 2): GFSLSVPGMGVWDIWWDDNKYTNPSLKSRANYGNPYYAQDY
Chain of D93, recombinant humanized IgG1 kappa antibody targeting denatured-collagen (light, as listed by the source, chain 2 of 2): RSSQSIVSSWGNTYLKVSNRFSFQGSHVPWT
Assay [2] deals with HUI77, murine IgM anti-denatured-collagen monoclonal antibody. Briefly: competition ELISA on coated dn-collagen IV.
Assay [3] relates to HUI77 binding to denatured collagen IV. Description: Competition ELISA: synthetic peptides blocking HUI77 binding to heat denatured collagen IV. Further details: species or system human. As for the experimental part: (§1) The ELISA was conducted as follows: wells of a 96-well microtiter plate (Immulon, 4 HBX flat-bottomed, Thermo Electron Corporation, Waltham, Mass.) were coated with 100 μL/well of dn-collagen IV at 10 μg/mL in Phosphate Buffered Saline (PBS) overnight at 4° C. The plate was washed 3 times (3×) with PBS containing 0.05% (v/v) Tween-20 (PBST) using an automated plate washer.
(§2) The plate was blocked by adding 300 μL/well of 1% BSA (w/v) in PBS for 1 hour at 25° C. followed by washing 3× in PBST as above.
(§3) Solutions of D93 or HUI77 were prepared with various concentrations of peptide or antibody inhibitor and incubate for 15 minutes. D93 or HUI77 was prepared at 200 ng/mL in 1% BSA/PBS.
(§4) For antibody blocking studies using synthetic peptides: peptide inhibitor stock solutions were prepared at 2 mM, 0.2 mM, 0.02 mM, and 0.002 mM in 1% BSA/PBS. 500 μL of a 2 mM peptide solution in 1% BSA/PBS was prepared and diluted 1:10 in 500 μL a total of three times to make peptide inhibitor concentrations.
(§5) 200 μL of D93 or HUI77 at 200 ng/mL solution was combined with 200 μL of peptide or antibody inhibitor solution and incubated for 15 minutes at room temperature.
(§6) D93 or HUI77 with various concentrations of inhibitors (2 mM, 0.2 mM, 0.02 mM, and 0.002 mM) were added to microplate wells and incubated for 1 hour at 25° C. The plate was washed 3× in PBST as above.
(§7) To each microtiter plate well, 100 μL of diluted anti-human IgG or anti-mouse IgM conjugated to horseradish peroxidase (HRP) in PBST was added and incubated for one hour at 25° C.: (a) for D93: Goat anti-human IgG-HRP (Jackson ImmunoResearch, Catalog No. 109-035-088) was used at 1:20,000 and (b) for HUI77: Goat anti-mouse IgM-HRP was used at 1:4,000. Plates were washed 3× in PBST as above.
(§8) Tetramethylbenzidine (TMB) substrate (100 μL; Pierce Chemicals)) was added to wells and the plates were allowed to develop at room temperature for 15 minutes in the dark. Substrate development was stopped by adding 50 μL/well of 2N H2SO4. The microtiter […] plates were read at 450 nm within five minutes of adding the H2SO4. Reactivity was measured with a microplate reader (Molecular Devices, Sunnyvale, Calif.) at a wavelength of 450 nm and analyzed using SOFTMax® PRO4.0 (Molecular Devices). All samples were tested in triplicate.
(§9) Individual peptides with amino acid substitutions and deletions were also synthesized based on the primary and secondary peptide arrays. […] The inhibitory activity of the individual peptides was tested by ELISA as previously described to measure binding of D93 or HUI77 to denatured collagen where peptides and antibodies were prepared at a 2× concentration and pre-incubated for 15 minutes prior to adding to microtiter plates coated with dn-collagen.
(§10) 96-well plates were coated with 100 μL/well of denatured (dn) collagen IV at 10 μg/mL in phosphate buffered saline (PBS) overnight at 4° C. followed by washing the plates in an automated plate washer 3 times in PBS containing 0.05% (v/v) Tween-20 (PBST). Non-specific binding was prevented by blocking the wells by adding 300 μL/well of 1% bovine serum albumin (BSA) (w/v) in PBS for 1 hour (hr) at 25° C. The plates were washed as above.
(§11) Solutions of D93 and HUI77 antibodies were prepared with various concentrations of inhibitor and incubated for 15 minutes. Briefly, 20 mLs of D93 or HUI77 were prepared at 200 ng/mL in 1% BSA/PBS. Solutions of peptide inhibitors (2 mM, 0.2 mM, […]) were prepared in 1% BSA/PBS. Equal volumes of antibodies and peptide inhibitors were combined: 200 μL of D93 or HUI77 (200 ng/mL solution) with 200 μL of each peptide solution.
(§12) 100 μL/well of D93 or HUI77 at 100 ng/mL with various concentrations of inhibitors were added to the wells in triplicate and incubated for 1 hour at 25° C. The plates were washed as described above.
(§13) 100 μL/well of secondary horseradish peroxidase (HRP)-conjugated antibody in PBST was added to each well and incubated for 1 hour (hr) at 25° C. […]

Assay [4] relates to D93 binding to human denatured-collagen IV. Briefly: Competition ELISA: synthetic peptides blocking D93 binding to heat denatured collagen IV. The procedure: as §1, §2, §3, §4, §5, §6, §7, §8, §9, §10, §11, §12, §13
Setting [5] is: peptide inhibitor concentration 10 μM, asterisk (*): data from a separate assay.
Setting [6] is: peptide inhibitor concentration 100 μM, asterisk (*): data from a separate assay.
Setting [7] is: peptide inhibitor concentration 1000 μM, asterisk (*): data from a separate assay.

For the molecule “synthetic peptide No. 21, GPPG (SEQ ID NO: 34)”, in assay [1], the % inhibition of D93 binding to dn-collagen IV, peptide 1 µM was 9.5%; the % inhibition of D93 binding to dn-collagen IV, peptide 10 µM came out at 6.5%; the % inhibition of D93 binding to dn-collagen IV, peptide 100 µM is 11%; the % inhibition of D93 binding to dn-collagen IV, peptide 1000 µM turned out to be 52%. Moreover, in assay [2], the % inhibition of HUI77 binding to dn-collagen IV, peptide 10 µM was 6.5%; the % inhibition of HUI77 binding to dn-collagen IV, peptide 100 µM was 9%; the % inhibition of HUI77 binding to dn-collagen IV, peptide 1000 µM was determined as 14%.
In the case of LPGPPGPPGPY [SEQ ID NO: 19], the “% INHIBITION OF BINDING OF HUI77 TO DENATURED COLLAGEN IV” value came out at 6.5% in assay [3] (peptide inhibitor concentration 10 μM, average of two studies, listed as 11 (19), 10 µM); 18.5% in assay [3] (peptide inhibitor concentration 100 μM, average of two studies, listed as 11 (19), 100 µM); 87% in assay [3] (peptide inhibitor concentration 1000 μM, average of two studies, listed as 11 (19), 1000 µM). In addition, the “% INHIBITION OF BINDING OF D93 TO HUMAN DENATURED-COLLAGEN IV” value in assay [4] (peptide inhibitor concentration 1 μM, average of two studies, vs 1% BSA/PBS alone, listed as 11 (19), 1 µM) turned out to be 32%; in assay [4] (peptide inhibitor concentration 10 μM, average of two studies, vs 1% BSA/PBS alone, listed as 11 (19), 10 µM), 83%; in assay [4] (peptide inhibitor concentration 100 μM, average of two studies, vs 1% BSA/PBS alone, listed as 11 (19), 100 µM), 93.5%; in assay [4] (peptide inhibitor concentration 1000 μM, average of two studies, vs 1% BSA/PBS alone, listed as 11 (19), 1000 µM), 93.5%.
Consider “LPGPPGPPG (LPGP[Hyp]GP[Hyp]G) [SEQ ID NO: 21]”, for which the “% INHIBITION OF BINDING OF HUI77 TO DENATURED COLLAGEN IV” value in assay [3] (peptide inhibitor concentration 10 μM, average of two studies) was determined as 6.5%; in assay [3] (peptide inhibitor concentration 100 μM, average of two studies, listed as 20 (21), 100 µM), 18%; in assay [3] (peptide inhibitor concentration 1000 μM, average of two studies, listed as 20 (21), 1000 µM), 86%. For the same molecule, the “% INHIBITION OF BINDING OF D93 TO HUMAN DENATURED-COLLAGEN IV” value came to 13% in assay [4] (peptide inhibitor concentration 1 μM, average of two studies, vs 1% BSA/PBS alone, listed as 20 (21), 1 µM); 35.5% in assay [4] (peptide inhibitor concentration 10 μM, average of two studies, vs 1% BSA/PBS alone, listed as 20 (21), 10 µM); 85.5% in assay [4] (peptide inhibitor concentration 100 μM, average of two studies, vs 1% BSA/PBS alone, listed as 20 (21), 100 µM); 92.5% in assay [4] (peptide inhibitor concentration 1000 μM, average of two studies, vs 1% BSA/PBS alone, listed as 20 (21), 1000 µM).
As to “LPGFPG [SEQ ID NO: 38, reference compound]”, the “% INHIBITION OF BINDING OF HUI77 TO DENATURED COLLAGEN IV” value in assay [3] (setting [5]) is reported as 10.2* %; in assay [3] (setting [6]), 0* %; in assay [3] (setting [7]), 3.7* %. For the same molecule, the “% INHIBITION OF BINDING OF D93 TO HUMAN DENATURED-COLLAGEN IV” value in assay [4] (peptide inhibitor concentration 1 μM, asterisk (*): data from a separate assay) is given as 5.4* %; in assay [4] (setting [5]), 7.8* %; in assay [4] (setting [6]), 8.3* %; in assay [4] (setting [7]), 11.6* %.
On to GPPGPPG [SEQ ID NO: 33], for which the “% INHIBITION OF BINDING OF HUI77 TO DENATURED COLLAGEN IV” value came to 1.5% in assay [3] (peptide inhibitor concentration 10 μM, average of two studies, listed as 23 (33), 10 µM); 2% in assay [3] (peptide inhibitor concentration 100 μM, average of two studies, listed as 23 (33), 100 µM); 1% in assay [3] (peptide inhibitor concentration 1000 μM, average of two studies, listed as 23 (33), 1000 µM). Further, the “% INHIBITION OF BINDING OF D93 TO HUMAN DENATURED-COLLAGEN IV” value in assay [4] (peptide inhibitor concentration 1 μM, average of two studies, vs 1% BSA/PBS alone, listed as 23 (33), 1 µM) stood at 5%; in assay [4] (peptide inhibitor concentration 10 μM, average of two studies, vs 1% BSA/PBS alone, listed as 23 (33), 10 µM), 4.5%; in assay [4] (peptide inhibitor concentration 100 μM, average of two studies, vs 1% BSA/PBS alone, listed as 23 (33), 100 µM), 1.5%; in assay [4] (peptide inhibitor concentration 1000 μM, average of two studies, vs 1% BSA/PBS alone, listed as 23 (33), 1000 µM), 6.5%.
L[Hyp]GL[Hyp]G [synthetic peptide No. 14, LPGLPG (SEQ ID NO: 25)]: in assay [1], the % inhibition of D93 binding to dn-collagen IV, peptide 1 µM was 8%; the % inhibition of D93 binding to dn-collagen IV, peptide 10 µM is 6.5%; the % inhibition of D93 binding to dn-collagen IV, peptide 100 µM was determined as 6.5%; the % inhibition of D93 binding to dn-collagen IV, peptide 1000 µM was found to be 46.5%. In assay [2], this molecule showed a % inhibition of HUI77 binding to dn-collagen IV, peptide 10 µM of 6%; a % inhibition of HUI77 binding to dn-collagen IV, peptide 100 µM of 9.5%; a % inhibition of HUI77 binding to dn-collagen IV, peptide 1000 µM of 17.5%.
Consider L[Hyp]GP[Hyp]G [synthetic peptide No. 16, LPGPPG (SEQ ID NO: 24)], for which, in assay [1], the % inhibition of D93 binding to dn-collagen IV, peptide 1 µM is 6.5%; the % inhibition of D93 binding to dn-collagen IV, peptide 10 µM came to 12%; the % inhibition of D93 binding to dn-collagen IV, peptide 100 µM was determined as 52.5%; the % inhibition of D93 binding to dn-collagen IV, peptide 1000 µM stood at 90%. In assay [2], the % inhibition of HUI77 binding to dn-collagen IV, peptide 10 µM is 3%; the % inhibition of HUI77 binding to dn-collagen IV, peptide 100 µM worked out at 8%; the % inhibition of HUI77 binding to dn-collagen IV, peptide 1000 µM is 64%.
As to LPGPPGPPG (also: hydroxyproline at marked P positions, if any, marking lost) [synthetic peptide No. 18, … (SEQ ID NO: 22)], in assay [1], the % inhibition of D93 binding to dn-collagen IV, peptide 1 µM is 6%; the % inhibition of D93 binding to dn-collagen IV, peptide 10 µM was 5%; the % inhibition of D93 binding to dn-collagen IV, peptide 100 µM is 3%; the % inhibition of D93 binding to dn-collagen IV, peptide 1000 µM was found to be 17.5%. For the same molecule, in assay [2], the % inhibition of HUI77 binding to dn-collagen IV, peptide 10 µM was 6.5%; the % inhibition of HUI77 binding to dn-collagen IV, peptide 100 µM came to 9%; the % inhibition of HUI77 binding to dn-collagen IV, peptide 1000 µM came out at 6%.
L[Hyp]GF[Hyp]G [synthetic peptide No. 19, LPGFPG (SEQ ID NO: 23)]: in assay [1], the % inhibition of D93 binding to dn-collagen IV, peptide 1 µM was found to be 10.5%; the % inhibition of D93 binding to dn-collagen IV, peptide 10 µM came to 6%; the % inhibition of D93 binding to dn-collagen IV, peptide 100 µM is 8%; the % inhibition of D93 binding to dn-collagen IV, peptide 1000 µM turned out to be 32%. For the same molecule, in assay [2], the % inhibition of HUI77 binding to dn-collagen IV, peptide 10 µM stood at 7%; the % inhibition of HUI77 binding to dn-collagen IV, peptide 100 µM was determined as 14.5%; the % inhibition of HUI77 binding to dn-collagen IV, peptide 1000 µM is 75%.
